Each block holds one binder with its values, some of them ahead of it.
Tests used:
human ANTXR1 ECD = molecular target: T1, human ANTXR1 ECD (human, UniProt Q9H6X2 33-321); experiment: direct ELISA on coated recombinant ECD (30 ng/well), HRP-conjugated secondary antibody, luminescence
T1 construct: extracellular domain; also called recombinant extracellular domain of ANTXR1
T1 sequence (looked up): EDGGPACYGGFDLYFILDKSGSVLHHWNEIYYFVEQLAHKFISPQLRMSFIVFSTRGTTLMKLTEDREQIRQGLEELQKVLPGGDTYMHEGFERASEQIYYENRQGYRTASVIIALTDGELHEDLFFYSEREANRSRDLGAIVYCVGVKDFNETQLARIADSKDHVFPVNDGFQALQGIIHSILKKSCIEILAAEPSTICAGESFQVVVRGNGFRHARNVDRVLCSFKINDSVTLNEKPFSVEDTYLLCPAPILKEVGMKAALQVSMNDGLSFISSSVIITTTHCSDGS
Protocol: (§1) Briefly, recombinant extracellular domain of PDGFRb, FAPα, ULBP1, uPAR, IGF1R, SIRPA, PD-L1, ANTXR1, CD248, or GPC3 (30 ng/well) was coated on white optiplate™-384 well HB plate. After overnight coating, standard direct ELISA assay was performed. Luminescence signal was detected after using secondary antibody with HRP conjugated. Binding activity of each antibody was determined based on dose dependent binding curve.

human uPAR ECD = molecular target: T2, human uPAR ECD (human, UniProt Q03405 23-305, limits assumed); experiment: as above
T2 construct: extracellular domain; also called recombinant extracellular domain of uPAR
T2 sequence (Q03405 23-305 limits assumed): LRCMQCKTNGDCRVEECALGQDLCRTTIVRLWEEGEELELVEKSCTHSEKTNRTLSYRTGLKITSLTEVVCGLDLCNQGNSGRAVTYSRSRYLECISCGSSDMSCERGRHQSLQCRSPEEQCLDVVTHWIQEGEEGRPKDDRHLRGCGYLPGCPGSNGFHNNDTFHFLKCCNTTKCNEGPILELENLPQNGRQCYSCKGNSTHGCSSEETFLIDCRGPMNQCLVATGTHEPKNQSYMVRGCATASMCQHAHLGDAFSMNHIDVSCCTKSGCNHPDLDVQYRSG
Protocol: as §1

[1] = molecular target: T3, IGF-1R on TGFb1-activated primary human HSC cells (human, UniProt P08069 31-1367); experiment: flow cytometry on TGFb1-activated primary human HSC cells, 10 ug/ml antibody, fluorophore-conjugated secondary antibody
T3 construct: whole, on cells
T3 sequence (P08069 31-1367): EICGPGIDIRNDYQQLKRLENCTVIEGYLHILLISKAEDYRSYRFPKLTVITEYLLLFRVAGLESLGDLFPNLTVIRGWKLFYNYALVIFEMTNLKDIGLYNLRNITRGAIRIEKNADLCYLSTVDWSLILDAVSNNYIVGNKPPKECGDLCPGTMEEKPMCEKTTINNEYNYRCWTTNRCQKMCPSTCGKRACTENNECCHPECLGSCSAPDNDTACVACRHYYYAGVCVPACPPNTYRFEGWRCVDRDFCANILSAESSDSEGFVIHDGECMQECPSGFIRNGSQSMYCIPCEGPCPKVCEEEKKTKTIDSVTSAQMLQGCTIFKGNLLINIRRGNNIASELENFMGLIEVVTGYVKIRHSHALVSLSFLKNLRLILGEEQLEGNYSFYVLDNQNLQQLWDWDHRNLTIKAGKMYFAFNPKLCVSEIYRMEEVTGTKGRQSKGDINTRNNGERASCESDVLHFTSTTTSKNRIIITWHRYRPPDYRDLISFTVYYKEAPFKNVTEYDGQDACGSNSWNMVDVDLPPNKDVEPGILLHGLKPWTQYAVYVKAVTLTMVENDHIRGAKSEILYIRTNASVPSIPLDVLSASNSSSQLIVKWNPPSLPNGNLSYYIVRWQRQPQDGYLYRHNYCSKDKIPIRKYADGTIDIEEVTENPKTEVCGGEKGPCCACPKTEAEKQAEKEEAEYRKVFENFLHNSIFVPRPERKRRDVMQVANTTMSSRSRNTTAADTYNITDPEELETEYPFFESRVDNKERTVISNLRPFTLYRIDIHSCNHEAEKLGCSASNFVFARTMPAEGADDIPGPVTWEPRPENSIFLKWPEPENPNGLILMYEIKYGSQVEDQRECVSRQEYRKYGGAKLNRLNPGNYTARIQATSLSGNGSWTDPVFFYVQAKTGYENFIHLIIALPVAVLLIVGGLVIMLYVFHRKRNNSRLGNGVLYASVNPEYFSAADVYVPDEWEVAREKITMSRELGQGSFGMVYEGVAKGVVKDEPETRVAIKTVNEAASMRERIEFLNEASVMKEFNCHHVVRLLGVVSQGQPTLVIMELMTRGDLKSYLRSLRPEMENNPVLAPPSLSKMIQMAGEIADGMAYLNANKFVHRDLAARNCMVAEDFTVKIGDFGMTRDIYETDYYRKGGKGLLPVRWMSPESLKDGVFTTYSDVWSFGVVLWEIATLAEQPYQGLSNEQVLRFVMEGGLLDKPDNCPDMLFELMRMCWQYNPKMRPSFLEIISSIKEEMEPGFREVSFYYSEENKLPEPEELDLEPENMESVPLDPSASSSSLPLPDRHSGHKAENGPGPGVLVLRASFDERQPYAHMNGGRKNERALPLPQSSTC
Protocol: Relative expression levels of the antigens on activated HSC were assayed using FACS. Human primary hepatic stellate cells (ScienCell, 5301) were cultured in culture medium (ScienCell, 5300). The cells were activated using 2 ng/ml human TGFb1 (Sinobiological, 10804-HNAC) for 24 hours. These cells were then collected for FACS assay. Briefly, the cells were incubated with 10 μg/ml primary antibody in blocking buffer (10% FBS in PBS) at 4 °C for 1 hour. After two rounds of PBS washes, the cells were stained with secondary antibody conjugated with a fluorophore. The mean fluorescence intensity was measured using FACS. Among the antigens tested, fibroblast activation protein alpha (FAPα) was expressed at relatively high levels, while uPAR, IGF-1R, GPC3, CD248 and NKG2D ligands were expressed at relatively low levels on TGFb1-activated HSC cells.

human SIRPA ECD = molecular target: T4, human SIRPA ECD (human, UniProt P78324 31-373); experiment: direct ELISA on coated recombinant ECD (30 ng/well), HRP-conjugated secondary antibody, luminescence
T4 construct: extracellular domain; also called recombinant extracellular domain of SIRPA
T4 sequence (P78324 31-373): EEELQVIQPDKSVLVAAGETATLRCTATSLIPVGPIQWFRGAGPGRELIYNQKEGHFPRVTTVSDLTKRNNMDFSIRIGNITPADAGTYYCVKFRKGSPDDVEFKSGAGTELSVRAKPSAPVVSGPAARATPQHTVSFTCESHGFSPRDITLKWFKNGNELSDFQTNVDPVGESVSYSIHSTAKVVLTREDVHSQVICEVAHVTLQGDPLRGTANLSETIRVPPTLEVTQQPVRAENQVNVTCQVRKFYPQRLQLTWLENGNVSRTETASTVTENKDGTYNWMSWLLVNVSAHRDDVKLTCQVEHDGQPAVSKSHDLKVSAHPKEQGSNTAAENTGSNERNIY
Protocol: as §1

human CD248 ECD = molecular target: T5, human CD248 ECD (human, UniProt Q9HCU0 18-687); experiment: as above
T5 construct: extracellular domain; also called recombinant extracellular domain of CD248
T5 sequence (looked up): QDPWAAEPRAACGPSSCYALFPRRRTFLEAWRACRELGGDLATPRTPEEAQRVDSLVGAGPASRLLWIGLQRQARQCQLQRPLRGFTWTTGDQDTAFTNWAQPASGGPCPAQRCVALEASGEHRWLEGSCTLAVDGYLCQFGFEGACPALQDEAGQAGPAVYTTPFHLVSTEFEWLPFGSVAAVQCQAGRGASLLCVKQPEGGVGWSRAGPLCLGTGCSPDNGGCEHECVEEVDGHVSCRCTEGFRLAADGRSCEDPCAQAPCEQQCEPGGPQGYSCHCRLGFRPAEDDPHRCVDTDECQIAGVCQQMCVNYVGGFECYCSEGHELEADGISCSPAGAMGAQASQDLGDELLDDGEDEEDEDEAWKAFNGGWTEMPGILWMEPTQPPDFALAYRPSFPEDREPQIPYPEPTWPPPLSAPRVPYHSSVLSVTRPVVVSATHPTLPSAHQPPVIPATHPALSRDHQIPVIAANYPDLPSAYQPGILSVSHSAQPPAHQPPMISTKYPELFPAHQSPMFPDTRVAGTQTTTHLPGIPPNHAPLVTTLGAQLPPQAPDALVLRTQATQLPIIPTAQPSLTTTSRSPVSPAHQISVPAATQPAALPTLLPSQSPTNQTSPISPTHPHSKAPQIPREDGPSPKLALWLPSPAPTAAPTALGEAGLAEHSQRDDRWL
Protocol: as §1

EC50 (read off the curve) (human ANTXR1 ECD): ~0.01 µg/mL
B1: α-ANTXR1 1 mIgG2a S239D/1332E (antibody, V domains shown)
VH: QVQLVQSGAEVKKPGTSVKVSCKVPGYTFSSYAISWVRQAPGQGLEWMGGIIPIFGTTNYAQKFQGRVTITGEESTSTVYMELSSLRSEDTAVYYCARDTDYMFDYWGQGTLVTVSS
VL: SSELTQDPVVSVALGETVSITCQGDNLRDFYASWYQQKPGQAPLLVMYGKNRRPSGIPDRFSGSTSGNTLSLTITGAQAEDEADYYCSSRDNSKHVVFGGGTKVTVLG
notes: mIgG2a with S239D/I332E; also called α-ANTXR1 1 mIgG2a S239D/I332E; exemplary anti-ANTXR1 antibody (α-ANTXR1 1)

binding result [1]: binds
B4: α-IGF1R 1 S239D/1332E (antibody, human IgG1, kappa, V domains shown)
VH: EVQLLESGGGLVQPGGSLRLSCAASGFTFSIYRMQWVRQAPGKGLEWVSGISPSGGTTWYADSVKGRFTISRDNSKNTLYLQMNSLRAEDTAVYYCARWSGGSGYAFDIWGQGTMVTVSS
VL: DIQMTQSPLSLSASVGDRVTITCQASRDIRNYLNWYQQKPGKAPKLLIYDASSLQTGVPSRFGGSGSGTDFSFTIGSLQPEDIATYYCQQFDSLPHTFGQGTKLEIKR
notes: hIgG1 with S239D/I332E; also called α-IGF1R 1 S239D/I332E; exemplary anti-IGF1R antibody (α-IGF1R 1)

The remaining lines, values behind:

B2: α-uPAR 1 S239D/1332E (antibody, human IgG1, kappa, V domains shown)
VH: QVQLVESGGGVVQPGRSLRLSCAASGFTFSSYGMHWVRQAPGKGLEWVAVIWYDGSNKYYADSVKGRFTISRDNSKNTLYLQMNSLRAEDTAVYYCARDQHIVVVTAILDYWGQGTLVTVSS
VL: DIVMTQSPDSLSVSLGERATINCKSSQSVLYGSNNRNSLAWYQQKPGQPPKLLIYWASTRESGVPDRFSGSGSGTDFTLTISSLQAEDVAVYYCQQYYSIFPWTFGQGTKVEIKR
notes: hIgG1 with S239D/I332E; also called α-uPAR 1 S239D/I332E; exemplary anti-uPAR antibody (α-uPAR 1)
EC50 (read off the curve) (human uPAR ECD): ~0.03 µg/mL

B3: α-ANTXR1 2 mIgG2a S239D/1332E (antibody, V domains shown)
VH: QVQLKESPGALVKPTQTLTLTCTFSGFSLSTSGGGVSWIRQPPGKALEWLAHIYSNDDKSYSTSLKTRLTISKDTSKNQVVLTMTNMDPVDTATYYCARGGYFLDYWGQGTLVTVSS
VL: DIELTQPPSVSVAPGQTARISCSGDNIGGIYVHWYQQKPGQAPVLVIYADSKRPSGIPERFSGSNSGNTATLTISGTQAEDEADYYCQSYDITSLVFGGGTKLTVLG
notes: mIgG2a with S239D/I332E; also called α-ANTXR1 2 mIgG2a S239D/I332E; exemplary anti-ANTXR1 antibody (α-ANTXR1 2)
EC50 (read off the curve) (human ANTXR1 ECD): ~0.02 µg/mL

B5: α-SIRPA 3 S239D/1332E (antibody, human IgG1, kappa, V domains shown)
VH: EVQLQQSGAELVKPGASVKLSCTASGFNIKDSYMHWVKQRTEQGLEWIGRIDPEDGETKYAPKFQGKATITADTSSNTAYLQLTSLTSEDTAVYYCARRGFYWGQGTTLTVSS
VL: QIVLTQSPAIMSASPGEKVTLTCSASSSVSSSYLYWYQQKPGSSPKLWIYSTSNLASGVPARFSGSGSGTSYSLTISSMEAEDAASYFCYQWSTHPYTFGGGTKLEIKR
notes: Chimeric: murine variable regions, hIgG1 constant region with S239D/I332E; also called α-SIRPA 3 S239D/I332E; exemplary anti-SIRPA antibody (α-SIRPA 3)
EC50 (read off the curve) (human SIRPA ECD): ~300 pM

B6: α-CD248 2 mIgG2a S239D/1332E (antibody, V domains shown)
VH: QVQLQESGPGLVRPSQTLSLTCTASGYTFTDYVIHWVKQPPGRGLEWIGYINPYDDDTTYNQKFKGRVTMLVDTSSNTAYLRLSSVTAEDTAVYYCARRGNSYDGYFDYSMDYWGSGTPVTVSS
VL: DIQMTQSPSSLSASVGDRVTITCRASQNVGTAVAWLQQTPGKAPKLLIYSASNRYTGVPSRFSGSGSGTDYTFTISSLQPEDIATYYCQQYTNYPMYTFGQGTKVQIKR
notes: mIgG2a with S239D/I332E; also called α-CD248 2 mIgG2a S239D/I332E; exemplary anti-CD248 antibody (α-CD248 2)
EC50 (read off the curve) (human CD248 ECD): ~0.01 µg/mL

Reference: patent publication US20240254239A1 (LAEKNA THERAPEUTICS SHANGHAI, published 2024)
